Measurements from patent US20170044259A1 (CYTOMX THERAPEUTICS, published 2017).

B1: masking moiety PM01 (peptide)
peptide: GCDFTSAKHNCGSGW
notes: bacterial display clone; also called PM001
B2: masking moiety PM02 (peptide)
peptide: VGSNCWTGPACALTS
notes: bacterial display clone; also called PM002
B3: masking moiety MP012 (peptide)
peptide: QPCNPQIDHKIKCIY
notes: bacterial display clone; also called MP12
B4: masking moiety MP013 (peptide)
peptide: HYTICMTHNKCKDMA
notes: bacterial display clone; also called MP13
B5: masking moiety MP014 (peptide)
peptide: ANSCLAVEHKCKHNY
notes: bacterial display clone; also called MP14
B6: PD-1 1.5 PD017 2001 (antibody, human IgG4 S228P, kappa)
heavy: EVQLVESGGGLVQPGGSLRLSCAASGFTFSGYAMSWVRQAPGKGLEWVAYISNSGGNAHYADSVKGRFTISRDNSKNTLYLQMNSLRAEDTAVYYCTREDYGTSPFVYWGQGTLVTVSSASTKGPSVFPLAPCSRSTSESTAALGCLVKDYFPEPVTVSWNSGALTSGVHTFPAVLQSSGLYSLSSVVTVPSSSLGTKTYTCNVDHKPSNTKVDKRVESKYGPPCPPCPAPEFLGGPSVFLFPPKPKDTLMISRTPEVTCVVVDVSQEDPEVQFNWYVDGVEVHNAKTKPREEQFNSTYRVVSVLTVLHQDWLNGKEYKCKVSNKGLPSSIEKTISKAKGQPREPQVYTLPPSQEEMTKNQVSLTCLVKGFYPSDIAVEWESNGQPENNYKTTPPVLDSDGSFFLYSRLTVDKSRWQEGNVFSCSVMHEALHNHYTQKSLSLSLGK
light: QGQSGQGTTCNLYQQSSMFCNAGGGSSGGSISSGLLSGRSDNHGGGSDIQLTQSPSSLSASVGDRVTITCRASESVDAYGISFMNWFQQKPGKAPKLLIYAASNQGSGVPSRFSGSGSGTDFTLTISSMQPEDFATYYCQQSKDVPWTFGQGTKLEIKRTVAAPSVFIFPPSDEQLKSGTASVVCLLNNFYPREAKVQWKVDNALQSGNSQESVTEQDSKDSTYSLSSTLTLSKADYEKHKVYACEVTHQGLSSPVTKSFNRGEC
notes: also called PD-17
B7: PD-1 1.5 PD025 2001 (antibody, human IgG4 S228P, kappa)
heavy: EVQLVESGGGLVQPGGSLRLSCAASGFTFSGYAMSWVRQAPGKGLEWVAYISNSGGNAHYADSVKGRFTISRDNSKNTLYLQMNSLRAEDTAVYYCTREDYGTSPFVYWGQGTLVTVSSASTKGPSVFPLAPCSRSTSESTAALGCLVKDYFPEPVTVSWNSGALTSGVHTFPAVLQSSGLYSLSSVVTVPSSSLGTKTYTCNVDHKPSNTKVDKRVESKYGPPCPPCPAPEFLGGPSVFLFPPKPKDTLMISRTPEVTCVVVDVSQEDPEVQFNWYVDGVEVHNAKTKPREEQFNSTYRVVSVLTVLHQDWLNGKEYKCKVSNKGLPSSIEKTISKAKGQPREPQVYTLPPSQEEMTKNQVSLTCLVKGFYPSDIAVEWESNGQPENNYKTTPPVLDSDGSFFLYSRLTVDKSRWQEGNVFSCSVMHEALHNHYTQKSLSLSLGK
light: QGQSGQGSRCSVYEVSSGLCDWGGGSSGGSISSGLLSGRSDNHGGGSDIQLTQSPSSLSASVGDRVTITCRASESVDAYGISFMNWFQQKPGKAPKLLIYAASNQGSGVPSRFSGSGSGTDFTLTISSMQPEDFATYYCQQSKDVPWTFGQGTKLEIKRTVAAPSVFIFPPSDEQLKSGTASVVCLLNNFYPREAKVQWKVDNALQSGNSQESVTEQDSKDSTYSLSSTLTLSKADYEKHKVYACEVTHQGLSSPVTKSFNRGEC
B8: PD-1 1.5 PD026 2001 (antibody, human IgG4 S228P, kappa)
heavy: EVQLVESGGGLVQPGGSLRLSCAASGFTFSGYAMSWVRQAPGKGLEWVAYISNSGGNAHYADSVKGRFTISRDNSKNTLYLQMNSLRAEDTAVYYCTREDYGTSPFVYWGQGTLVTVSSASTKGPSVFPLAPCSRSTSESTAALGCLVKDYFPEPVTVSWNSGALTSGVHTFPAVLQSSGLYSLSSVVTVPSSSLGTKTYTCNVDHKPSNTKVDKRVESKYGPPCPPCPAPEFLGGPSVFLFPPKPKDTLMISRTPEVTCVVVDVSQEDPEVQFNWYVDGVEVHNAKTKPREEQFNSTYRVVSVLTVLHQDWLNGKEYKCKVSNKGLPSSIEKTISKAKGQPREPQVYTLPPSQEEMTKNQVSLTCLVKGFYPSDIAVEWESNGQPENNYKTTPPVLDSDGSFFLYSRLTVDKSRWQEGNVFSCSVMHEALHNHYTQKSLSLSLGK
light: QGQSGQGGMCSAYAYSSKLCTIGGGSSGGSISSGLLSGRSDNHGGGSDIQLTQSPSSLSASVGDRVTITCRASESVDAYGISFMNWFQQKPGKAPKLLIYAASNQGSGVPSRFSGSGSGTDFTLTISSMQPEDFATYYCQQSKDVPWTFGQGTKLEIKRTVAAPSVFIFPPSDEQLKSGTASVVCLLNNFYPREAKVQWKVDNALQSGNSQESVTEQDSKDSTYSLSSTLTLSKADYEKHKVYACEVTHQGLSSPVTKSFNRGEC
B9: PD-1 1.5 PD006 2001 (antibody, human IgG4 S228P, kappa)
heavy: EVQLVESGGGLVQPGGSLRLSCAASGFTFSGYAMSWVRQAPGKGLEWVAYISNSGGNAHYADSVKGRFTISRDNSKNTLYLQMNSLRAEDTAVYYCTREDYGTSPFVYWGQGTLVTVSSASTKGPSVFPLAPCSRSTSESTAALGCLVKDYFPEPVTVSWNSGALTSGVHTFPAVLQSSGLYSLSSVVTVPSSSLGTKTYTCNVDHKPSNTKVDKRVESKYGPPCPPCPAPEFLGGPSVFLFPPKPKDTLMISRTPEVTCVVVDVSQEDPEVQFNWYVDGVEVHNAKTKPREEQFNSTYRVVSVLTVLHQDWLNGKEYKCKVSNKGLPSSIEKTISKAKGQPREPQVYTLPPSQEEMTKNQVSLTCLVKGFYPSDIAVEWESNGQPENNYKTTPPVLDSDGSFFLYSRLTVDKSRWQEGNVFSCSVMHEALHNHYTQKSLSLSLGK
light: QGQSGQGAPRCYMFASYCKSQYGGGSSGGSISSGLLSGRSDNHGGGSDIQLTQSPSSLSASVGDRVTITCRASESVDAYGISFMNWFQQKPGKAPKLLIYAASNQGSGVPSRFSGSGSGTDFTLTISSMQPEDFATYYCQQSKDVPWTFGQGTKLEIKRTVAAPSVFIFPPSDEQLKSGTASVVCLLNNFYPREAKVQWKVDNALQSGNSQESVTEQDSKDSTYSLSSTLTLSKADYEKHKVYACEVTHQGLSSPVTKSFNRGEC
B10: PD-1 1.5 PD028 2001 (antibody, human IgG4 S228P, kappa)
heavy: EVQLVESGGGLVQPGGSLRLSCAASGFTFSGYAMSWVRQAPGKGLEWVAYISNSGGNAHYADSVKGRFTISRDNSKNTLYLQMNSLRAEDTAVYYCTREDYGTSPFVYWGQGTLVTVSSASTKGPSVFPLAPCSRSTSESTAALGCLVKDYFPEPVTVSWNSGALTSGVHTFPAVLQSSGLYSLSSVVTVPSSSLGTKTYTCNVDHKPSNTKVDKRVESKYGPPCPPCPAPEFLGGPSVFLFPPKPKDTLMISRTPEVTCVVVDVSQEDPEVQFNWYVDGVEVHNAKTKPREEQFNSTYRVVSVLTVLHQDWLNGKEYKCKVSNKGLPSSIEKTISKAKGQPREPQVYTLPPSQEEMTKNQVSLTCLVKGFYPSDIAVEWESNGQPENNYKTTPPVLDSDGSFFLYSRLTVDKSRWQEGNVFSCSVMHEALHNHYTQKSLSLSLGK
light: QGQSGQGFQPCLMFASSCFTSKGGGSSGGSISSGLLSGRSDNHGGGSDIQLTQSPSSLSASVGDRVTITCRASESVDAYGISFMNWFQQKPGKAPKLLIYAASNQGSGVPSRFSGSGSGTDFTLTISSMQPEDFATYYCQQSKDVPWTFGQGTKLEIKRTVAAPSVFIFPPSDEQLKSGTASVVCLLNNFYPREAKVQWKVDNALQSGNSQESVTEQDSKDSTYSLSSTLTLSKADYEKHKVYACEVTHQGLSSPVTKSFNRGEC
B11: A1.5 PD34 2001 (antibody, human IgG4 S228P, kappa)
heavy: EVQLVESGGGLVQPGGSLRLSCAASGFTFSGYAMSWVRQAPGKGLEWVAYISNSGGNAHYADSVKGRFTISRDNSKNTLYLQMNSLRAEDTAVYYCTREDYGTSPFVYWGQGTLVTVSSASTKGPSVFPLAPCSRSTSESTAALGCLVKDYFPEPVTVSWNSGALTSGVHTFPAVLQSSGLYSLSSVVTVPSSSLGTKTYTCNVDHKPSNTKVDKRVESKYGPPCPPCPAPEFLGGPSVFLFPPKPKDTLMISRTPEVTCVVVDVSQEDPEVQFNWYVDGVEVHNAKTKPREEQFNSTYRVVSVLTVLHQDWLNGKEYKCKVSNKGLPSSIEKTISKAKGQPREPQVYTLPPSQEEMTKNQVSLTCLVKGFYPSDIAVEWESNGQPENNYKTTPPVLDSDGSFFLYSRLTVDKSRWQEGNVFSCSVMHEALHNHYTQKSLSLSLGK
light: QGQSGQGTSYCSIEHYPCNTHHGGGSSGGSISSGLLSGRSDNHGGGSDIQLTQSPSSLSASVGDRVTITCRASESVDAYGISFMNWFQQKPGKAPKLLIYAASNQGSGVPSRFSGSGSGTDFTLTISSMQPEDFATYYCQQSKDVPWTFGQGTKLEIKRTVAAPSVFIFPPSDEQLKSGTASVVCLLNNFYPREAKVQWKVDNALQSGNSQESVTEQDSKDSTYSLSSTLTLSKADYEKHKVYACEVTHQGLSSPVTKSFNRGEC
notes: also called PD-1 1.5 PD034 2001; PD1 1.5 PD34 2001
B12: masking moiety NV01 (peptide)
peptide: RYCHAANPDRFCGIY
notes: bacterial display clone; also called NV001
B13: masking moiety NV02 (peptide)
peptide: PRVCSTDGGDYCLLP
notes: bacterial display clone; also called NV002

These binders were tested against T1, pembrolizumab (assay: bacterial display clone with labeled PM1).
T1 construct: also called PM1; PM1 AB
T1 sequence (VH, as listed by the source, chain 1 of 2): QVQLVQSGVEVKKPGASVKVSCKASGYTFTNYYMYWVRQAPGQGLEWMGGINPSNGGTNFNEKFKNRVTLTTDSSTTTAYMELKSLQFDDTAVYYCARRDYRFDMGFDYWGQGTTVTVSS
T1 sequence (VL, as listed by the source, chain 2 of 2): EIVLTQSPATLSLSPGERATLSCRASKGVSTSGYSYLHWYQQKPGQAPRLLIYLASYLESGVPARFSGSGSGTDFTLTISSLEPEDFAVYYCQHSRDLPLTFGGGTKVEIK
B1: binds. B2: binds. FCAVMFDFLSDRCLH (bacterial display clone) [masking moiety PM03]: binds. FCPPWLDYLGNKCMT (bacterial display clone) [masking moiety PM04]: binds. MSCWDFSSAQGCGQH (bacterial display clone) [masking moiety PM05]: binds. LMCADLHYNHYNCKY (bacterial display clone) [masking moiety PM06]: binds. ELCGWQSFSGVCTSE (bacterial display clone) [masking moiety PM07]: binds. WTYENCWASCQPHLE (bacterial display clone) [masking moiety PM08]: binds. KLTEDFSSAA (bacterial display clone) [masking moiety PM09]: binds. VGQSCFSGLVCDRQL (bacterial display clone) [masking moiety PM10]: binds. ISHYCFSGKSCRD (bacterial display clone) [masking moiety PM11]: binds. HCIPDFTSAAGDCMR (bacterial display clone) [masking moiety PM12]: binds.

What follows are binders tested against T2, J43v2 mIgG2a (assay: bacterial display clone with DyLight 650 labeled J43v2 m2a).
T2 construct: also called J43 m2a; J43v2 m2a
T2 sequence (VH, as listed by the source, chain 1 of 2): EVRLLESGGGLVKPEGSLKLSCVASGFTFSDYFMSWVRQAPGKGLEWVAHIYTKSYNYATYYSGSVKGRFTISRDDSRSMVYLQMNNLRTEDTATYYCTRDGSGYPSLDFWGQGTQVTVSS
T2 sequence (VL, as listed by the source, chain 2 of 2): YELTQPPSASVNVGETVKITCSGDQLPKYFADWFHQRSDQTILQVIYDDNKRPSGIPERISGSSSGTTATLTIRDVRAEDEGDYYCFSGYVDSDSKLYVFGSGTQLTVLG
B3: binds. B4: binds. B5: binds.

Each binder was assayed against T3, human PD-1-Fc (R and D systems, Minneapolis, Minn.) (human, UniProt Q15116 25-167) (assay: plate ELISA on human PD-1-Fc; reference A1.5).
T3 construct: bought; also called hPD-1-Fc; hPD-1; not shown: Fc part of the bought fusion
T3 sequence (Q15116 25-167 limits assumed): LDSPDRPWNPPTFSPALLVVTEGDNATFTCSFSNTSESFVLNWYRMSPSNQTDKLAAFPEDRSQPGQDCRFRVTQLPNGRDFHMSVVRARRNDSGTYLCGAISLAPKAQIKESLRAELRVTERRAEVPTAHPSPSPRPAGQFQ
B6 was tested, and the “ME (masking efficiency, Kd of the activatable antibody divided by Kd of the parental antibody)” value was 20. With B7 the “ME (masking efficiency, Kd of the activatable antibody divided by Kd of the parental antibody)” value was 30. With B8 the “ME (masking efficiency, Kd of the activatable antibody divided by Kd of the parental antibody)” value was 20. With B9 the “ME (masking efficiency, Kd of the activatable antibody divided by Kd of the parental antibody)” value was 30. In the case of B10, the “ME (masking efficiency, Kd of the activatable antibody divided by Kd of the parental antibody)” value is reported as 25. With B11 the “ME (masking efficiency, Kd of the activatable antibody divided by Kd of the parental antibody)” value was 42.

Each binder was assayed against T3, human PD-1-Fc (R and D systems, …) (assay: plate ELISA on human PD-1-Fc; apparent KD).
B6 showed a Kd of 22 nM. B9 gave a Kd of 71 nM.

Target: T3, human PD-1-Fc (R and D systems, …)
Assay: plate ELISA on human PD-1-Fc; reference A1.5
Remark: another data set of the same source
For B6, the “Masking Efficiency” value was 12. With B9 the “Masking Efficiency” value was 39.

Each binder was assayed against T4, nivolumab (assay: bacterial display clone with labeled NV1).
T4 construct: also called NV1; NV1 nivo
T4 sequence (VH, as listed by the source, chain 1 of 2): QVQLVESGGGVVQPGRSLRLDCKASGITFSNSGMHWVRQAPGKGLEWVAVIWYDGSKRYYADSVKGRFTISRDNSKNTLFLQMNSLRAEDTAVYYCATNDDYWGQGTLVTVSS
T4 sequence (VL, as listed by the source, chain 2 of 2): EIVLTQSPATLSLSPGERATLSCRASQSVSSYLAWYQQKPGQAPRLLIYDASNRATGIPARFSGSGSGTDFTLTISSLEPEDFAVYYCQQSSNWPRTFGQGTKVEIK
B12: binds. B13: binds. PRPQCHHRHNCPDHP (bacterial display clone) [masking moiety NV03]: binds. KCSRPAHQNPDRCSR (bacterial display clone) [masking moiety NV04]: binds. ASYRCPDYKCSHTKH (bacterial display clone) [masking moiety NV05]: binds. LPRCPDHPIKCIETK (bacterial display clone) [masking moiety NV06]: binds. YTFGCPDRYCDRAAT (bacterial display clone) [masking moiety NV07]: binds. RGCPDFNPPSHCYTA (bacterial display clone) [masking moiety NV08]: binds. RDYCGPQSPDYCHEI (bacterial display clone) [masking moiety NV09]: binds. PNKPCPDLQCYVTNY (bacterial display clone) [masking moiety NV10]: binds. PRVACGEPDLCYSNT (bacterial display clone) [masking moiety NV11]: binds. RGCKKHTISTLTCPD (bacterial display clone) [masking moiety NV12]: binds.
